Results on two molecules are retold here after patent US20130224190A1 (INTERNATIONAL DRUG DEVELOPMENT BIOTECH, published 2013).

Where a chain is given by its changes, count along the chain named. Names may count otherwise.

The target of this test is T1, human C1q (human, UniProt P02745 23-245; P02746 28-253; P02747 29-245).
T1 construct: The assay used recombinant human C1q (Abd Serotec, 0.2 ug/ml) or C1q from natural human complement (Sigma); It was detected with sheep anti-human C1q-peroxidase on plates coated with the MAb; also called recombinant human C1q; human complement
T1 sequence (P02745 23-245 limits assumed, chain 1 of 3): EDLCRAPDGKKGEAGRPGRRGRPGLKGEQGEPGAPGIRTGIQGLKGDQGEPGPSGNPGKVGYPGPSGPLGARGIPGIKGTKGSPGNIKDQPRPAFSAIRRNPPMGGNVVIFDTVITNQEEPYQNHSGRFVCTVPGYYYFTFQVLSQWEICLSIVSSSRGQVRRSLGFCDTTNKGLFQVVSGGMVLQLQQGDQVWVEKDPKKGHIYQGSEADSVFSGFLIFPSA
T1 sequence (P02746 28-253 limits assumed, chain 2 of 3): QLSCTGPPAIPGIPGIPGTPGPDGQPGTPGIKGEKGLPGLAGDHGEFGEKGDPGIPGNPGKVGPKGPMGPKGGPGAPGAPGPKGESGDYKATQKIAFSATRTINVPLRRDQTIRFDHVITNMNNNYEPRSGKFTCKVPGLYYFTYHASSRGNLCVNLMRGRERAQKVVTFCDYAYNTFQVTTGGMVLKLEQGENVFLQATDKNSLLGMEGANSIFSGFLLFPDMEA
T1 sequence (P02747 29-245 limits assumed, chain 3 of 3): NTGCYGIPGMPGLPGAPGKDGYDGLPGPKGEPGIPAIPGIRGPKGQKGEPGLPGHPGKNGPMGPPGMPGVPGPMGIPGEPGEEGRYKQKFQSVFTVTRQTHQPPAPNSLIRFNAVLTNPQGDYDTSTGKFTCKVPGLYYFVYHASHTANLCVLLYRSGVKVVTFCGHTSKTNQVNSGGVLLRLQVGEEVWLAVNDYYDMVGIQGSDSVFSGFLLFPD
As to the kind of experiment: ELISA, C1q on coated MAb. (In general: In an ELISA, binding on a coated surface is turned into a signal by an enzyme label.)

Procedure: The binding of human recombinant C1q was assessed by an ELISA binding assay. […] Data represent mean+/−SD of two independent experiments.
Complement binding assay: The binding of human C1q to MAbs was assessed by an ELISA binding assay. The 96-well plates (Nunc) were coated overnight at 4° C. with varying MAb concentrations. After washing, the plates were blocked with PBS-5% BSA for 1 h, and incubated for 1 h with 0.2 μg/ml of recombinant human C1q (Abd Serotec) or 2.5 μl of natural human complement (Sigma). Then, 100 μl of a 1/500 dilution of sheep anti-human C1q peroxidase-conjugated Ab (Abd Serotec) added and incubated for 1 h. The plates were developed with 100 μl per well of TMB substrate (Uptima Interchim). After H₂S0₄ addition, the OD was measured at 450 nm/630 nm using a MRX II microplate reader.

B1: chR005-1 Fc24 (antibody)
heavy: QVQLQQSGAELVRPGSSVKISCKASGYAFSSYWVNWMKQRPGQGLEWIGQIYPGDGDTNYNGKFKGRATVTADKSSSTSYMQFSSLTSEDSAVYFCARSITTVVGCAMDYWGQGTSVTVSSASTKGPSVFPLAPSSKSTSGGTAALGCLVKDYFPEPVTVSWNSGALTSGVHTFPAVLQSSGLYSLSSVVTVPSSSLGTQTYICNVNHKPSNTKVDKKVEPKSCDKTHTCPPCPAPELLGGPSVFLLPPKPKDTLMISRTPEVTCVVVDVSHEDPEVKFNWYVDGVEVHNAKTKPPEEQYNSTLRVVSLLTVLHQDWLNGKEYKCKVSNAALPAPIAKTISKAKGQPREPQVYTLPPSRDELTKNQVSLTCLVKGFYPSDIAVEWESNGQPENNYKTTPLVLDSDGSFFLYSKLTVDKSRWQQGNVFSCSVMHEALHNHYTQKSLSLSPGK
light: DIQMTQSSAYLSVSLGGRVTITCKASDHINNWLAWYQHKPGNAPRLLISGATTLETGVPSRFSGSGSGKDYTLSITSLQTEDVATYYCQQSWNTPWTFGGGTK
notes: Chimeric human IgG1 with variant Fc24 (F243L/R292P/Y300L/V305L/K326A/E333A/P396L against Fc0); also called chR005-1 Fc24 MAb; Fc24 optimized chR005-1 MAb; not shown: human light chain constant region
Turning to B1, the binding result is “binds”.

B2: chR005-1 Fc34 (antibody)
heavy: B1 heavy with A337E
light: B1 light
notes: Chimeric human IgG1 with variant Fc34 (F243L/R292P/Y300L/V305L/K326A/P396L against Fc0); also called chR005-1 Fc34 MAb; Fc34 LPLLAL; not shown: human light chain constant region
With B2, the binding result was “binds”.
